# Measured values from the supplement of paper PMC10724198.
# ± gives the standard deviation of the averaged measurements.
# Legend:
# Saccharomyces cerevisiae [1] = test: protein stability index of tFT-peptide fusion (C-terminal peptide) (PSI (0-1 scale)); higher = more stable (slower turnover)
# Method: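 MPS profiling in S. cerevisiae of the tFT-X12 degron library: putative degron peptides plus stable controls, 12 aa, fused to the C-terminus of a sfGFP-mCherry timer. Cells are FACS-sorted into 8 mCherry/sfGFP bins and deep-sequenced. PSI runs from 0 (unstable) to 1 (stable). Backgrounds are wild type, das1Δ and doa10Δ at 30 °C, and wild type, das1Δ, cdc34-1 and cdc53-1 at 37 °C; 2-3 technical replicates each.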
# Saccharomyces cerevisiae [2] = test: as above; conditions: genetic background: wild type; temperature: 30 C
# [3] = genetic background: cdc34-1, temperature: 37 C
# [4] = genetic background: cdc53-1, temperature: 37 C
# [5] = genetic background: das1 deletion, temperature: 30 C
# [6] = genetic background: das1 deletion, temperature: 37 C
# [7] = genetic background: doa10 deletion, temperature: 30 C
# [8] = genetic background: wild type, temperature: 30 C
# [9] = genetic background: wild type, temperature: 37 C
# 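Note: PSI is a weighted mean of sequencing reads over stability bins, variants kept only with over 10 reads, mCherry proximal and sfGFP distal, peptide attached via GGGS linker.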
Sequence,protein stability index (Saccharomyces cerevisiae [1]; [3]),protein stability index (Saccharomyces cerevisiae [1]; [4]),protein stability index (Saccharomyces cerevisiae [1]; [5]),protein stability index (Saccharomyces cerevisiae [1]; [6]),protein stability index (Saccharomyces cerevisiae [1]; [7]),protein stability index (Saccharomyces cerevisiae [1]; [8]),protein stability index (Saccharomyces cerevisiae [1]; [9]),protein stability index (Saccharomyces cerevisiae [2])
THRAVGIGLRCC,0.558 ± 0.042,0.637 ± 0.02,0.496 ± 0.029,0.645 ± 0.0067,0.165 ± 0.01,0.186 ± 0.022,0.4005 ± 0.0016,0.358 ± 0.025
TIRKCIIKWIKI,0.591 ± 0.032,0.581 ± 0.031,0.475 ± 0.021,0.596 ± 0.029,0.174 ± 0.0094,0.189 ± 0.036,0.398 ± 0.024,0.368 ± 0.016
TKDFVIKKTKIS,0.537 ± 0.017,0.7393 ± 0.0047,0.641 ± 0.019,0.737 ± 0.022,0.135 ± 0.03,0.159 ± 0.03,0.236 ± 0.028,0.169 ± 0.021
TLDWKFGRGGIG,0.315 ± 0.0073,0.4083 ± 0.0019,0.348 ± 0.017,0.406 ± 0.017,0.33 ± 0.0094,0.338 ± 0.01,0.4041 ± 0.0037,0.375 ± 0.0046
TVLGRDFALSVC,0.455 ± 0.0056,0.4916 ± 0.004,0.361 ± 0.046,0.543 ± 0.015,0.308 ± 0.0071,0.346 ± 0.023,0.501 ± 0.0061,0.4599 ± 0.00056
TVYMVIRVIVWG,0.129 ± 0.023,0.126 ± 0.046,0.141 ± 0.055,0.246 ± 0.0077,0.0909 ± 0.023,0.102 ± 0.032,0.154 ± 0.013,0.207 ± 0.027
TYCFRVCAWRAN,0.603 ± 0.049,0.706 ± 0.021,0.583 ± 0.0094,0.677 ± 0.012,0.176 ± 0.0011,0.208 ± 0.026,0.396 ± 0.017,0.341 ± 0.016
VACLRLTVYVMG,0.0455 ± 0.0053,0.0789 ± 0.015,0.128 ± 0.025,0.231 ± 0.0037,0.101 ± 0.009,0.124 ± 0.03,0.204 ± 0.016,0.193 ± 0.028
VASYVCIGVVWV,0.4298 ± 0.0038,0.492 ± 0.061,0.301 ± 0.023,0.497 ± 0.025,0.262 ± 0.0045,0.299 ± 0.02,0.456 ± 0.01,0.351 ± 0.035
VCFLCIWLYSED,0.268 ± 0.028,0.358 ± 0.013,0.227 ± 0.041,0.4305 ± 0.004,0.218 ± 0.017,0.221 ± 0.033,0.418 ± 0.056,0.344 ± 0.026
VCLFFFGYWCCL,0.565 ± 0.066,0.555 ± 0.026,0.469 ± 0.015,0.566 ± 0.0067,0.493 ± 0.017,0.479 ± 0.0093,0.53 ± 0.011,0.501 ± 0.024
VCLFRLVVFFPV,0.234 ± 0.039,0.335 ± 0.024,0.217 ± 0.021,0.426 ± 0.037,0.196 ± 0.02,0.222 ± 0.018,0.377 ± 0.014,0.349 ± 0.005
VCLLFRFCCWFW,0.351 ± 0.024,0.357 ± 0.0081,0.305 ± 0.013,0.461 ± 0.02,0.331 ± 0.025,0.304 ± 0.01,0.414 ± 0.03,0.371 ± 0.017
VCTFLLVSFFLS,0.223 ± 0.0027,0.315 ± 0.064,0.237 ± 0.028,0.423 ± 0.012,0.186 ± 0.019,0.185 ± 0.017,0.33 ± 0.0099,0.326 ± 0.017
VCVYLVSLPYLA,0.451 ± 0.015,0.462 ± 0.025,0.39 ± 0.026,0.522 ± 0.021,0.239 ± 0.018,0.232 ± 0.03,0.381 ± 0.011,0.303 ± 0.035
